The text below walks through data of publication PMC4689412.

For this experiment, the target named is AP-1 clathrin adaptor complex (UniProt O43747). Description: GST pull-down, Western blot with anti-γ-adaptin, densitometry. As to conditions: HeLa cell lysates; GST-fusions immobilized on GSH-sepharose beads; parent: est. 100; read off a plot.
Chain of UniProt O43747 (O43747 whole entry, looked up, the tested form may be a part, one chain of several): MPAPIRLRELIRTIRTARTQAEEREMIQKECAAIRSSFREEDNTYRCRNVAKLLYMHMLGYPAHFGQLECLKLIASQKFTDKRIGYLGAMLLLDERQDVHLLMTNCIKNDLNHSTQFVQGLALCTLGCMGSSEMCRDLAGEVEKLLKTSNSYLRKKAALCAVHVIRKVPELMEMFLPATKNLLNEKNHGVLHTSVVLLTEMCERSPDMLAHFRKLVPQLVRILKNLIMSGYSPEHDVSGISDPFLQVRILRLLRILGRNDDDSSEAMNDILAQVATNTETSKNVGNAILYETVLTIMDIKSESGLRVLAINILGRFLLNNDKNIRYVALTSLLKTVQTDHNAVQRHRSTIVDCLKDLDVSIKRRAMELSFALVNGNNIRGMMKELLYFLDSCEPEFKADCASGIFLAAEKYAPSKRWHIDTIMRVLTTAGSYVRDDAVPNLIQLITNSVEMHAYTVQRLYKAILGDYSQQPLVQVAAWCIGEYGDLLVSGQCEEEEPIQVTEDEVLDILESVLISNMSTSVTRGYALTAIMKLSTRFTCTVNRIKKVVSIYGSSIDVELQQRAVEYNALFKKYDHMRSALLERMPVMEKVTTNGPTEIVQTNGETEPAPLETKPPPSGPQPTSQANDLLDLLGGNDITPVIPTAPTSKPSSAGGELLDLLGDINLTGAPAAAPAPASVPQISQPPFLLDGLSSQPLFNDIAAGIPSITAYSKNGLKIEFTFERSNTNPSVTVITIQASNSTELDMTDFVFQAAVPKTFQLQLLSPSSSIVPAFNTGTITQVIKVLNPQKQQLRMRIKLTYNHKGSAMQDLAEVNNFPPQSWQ
Take “GST-Nef, wild-type HIV-1 NL4.3 Nef fused to glutathione-S-transferase L164A; L165A”: the percent of parent is 17 % of control.
As to “GST-Nef, wild-type HIV-1 NL4.3 Nef fused to glutathione-S-transferase P129A; G130A”, the percent of parent was 74 % of control.
For the substance “GST-Nef, wild-type HIV-1 NL4.3 Nef fused to glutathione-S-transferase P131A; G132A”, the percent of parent is 75 % of control.
